We go through one molecule from CN1903878A (UNIV FUDAN, dated 2007).

The assay addresses T1, 重组冠状病毒S蛋白 (SARS冠状病毒棘突蛋白部分片段, 氨基酸位点257~573) (SARS冠状病毒, UniProt P59594 257-573).
T1 construct: range 257-573; also called 重组S蛋白; 重组抗原S蛋白
The assay is described as follows: SPR (Biacore 3000), recombinant S protein immobilised, Fab at 2.5-0.3125 μg/ml.

The Kd is a measure of binding affinity in units of concentration. As usually defined, the koff is the first-order rate constant of dissociation. Broadly, the kon is a measure of how fast the partners come together.

B1: 抗冠状病毒人源性基因工程抗体Fab片段AS3-3 (Fab, V domains shown)
VH: EVKLVESGGGVVQPGRSLRLSCAASGFRFSTYAIHWVRQAPGKGLEWVARISHDGSQTHYADSVQGRFGVSRDNSNYTAYVQLNSLRPDDTAVYFCARAYSSTPDYGMDVWGQGTAVTVSS
VL: EIVMTQSPLSPVTLGQPASISCKSSQSLVDTNGNTYLIWFHQRPGQSPRRLIYQVSKRDSGVPDRFSGSGTDFTLKISRVEAEDVGVYFCMQGTYRPPTLGQGTKVEIKR
notes: also called 阳性克隆AS3-3; 抗SARS病毒人源性抗体IgG Fab片段
As to B1, the Ka turned out to be 5.05e+07 M⁻¹, the Kd came to 0.0198 µM, the koff is 0.00306 s⁻¹ and the kon came out at 154000 M⁻¹ s⁻¹.
